Paper PMC10500007, “De novo design of highly selective miniprotein inhibitors of integrins αvβ6 and αvβ8” (Nature Communications, 2023)

Legend:
B8_BP_dslf = target: T1, B8_BP_dslf; test: BLI; Octet RED96; His-tagged and Avi-tagged minibinders immobilised on Ni-NTA and streptavidin sensor tips, dipped into wells with different concentrations of integrin; association 900 s, dissociation 1200 s; conditions: both partners purified
T1 construct: de novo designed RGD miniprotein with redesigned, extended β-loop and the motif MAVY in place of LXX(L/I); For BLI His-tagged (Ni-NTA tips) or N-terminally Avi-tagged, biotinylated (streptavidin tips); The methods of model building name a design model 'B8_BP2_dslf'; also called MAVY; source: E. coli BL21(DE3*), purified (Ni-NTA, SEC); not shown: His tag, C-terminal, kept

B8_BP-LATY = target: T2, B8_BP-LATY; test: as above; conditions: both partners purified
T2 construct: positions 13-16 worked out from the printed Y16; source: E. coli BL21(DE3*), purified (Ni-NTA, SEC); not shown: His tag, C-terminal, kept
T2 sequence (main, as listed by the source): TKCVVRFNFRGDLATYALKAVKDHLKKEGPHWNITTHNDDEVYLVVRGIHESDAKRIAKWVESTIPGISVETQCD

B1: human integrin αvβ8 (soluble, construct not stated) (complex)
chain 1: FNLDVDSPAEYSGPEGSYFGFAVDFFVPSASSRMFLLVGAPKANTTQPGIVEGGQVLKCDWSSTRRCQPIEFDATGNRDYAKDDPLEFKSHQWFGASVRSKQDKILACAPLYHWRTEMKQEREPVGTCFLQDGTKTVEYAPCRSQDIDADGQGFCQGGFSIDFTKADRVLLGGPGSFYWQGQLISDQVAEIVSKYDPNVYSIKYNNQLATRTAQAIFDDSYLGYSVAVGDFNGDGIDDFVSGVPRAARTLGMVYIYDGKNMSSLYNFTGEQMAAYFGFSVAATDINGDDYADVFIGAPLFMDRGSDGKLQEVGQVSVSLQRASGDFQTTKLNGFEVFARFGSAIAPLGDLDQDGFNDIAIAAPYGGEDKKGIVYIFNGRSTGLNAVPSQILEGQWAARSGCPPSFGYSMKGATDIDKNGYPDLIVGAFGVDRAILYRARPVITVNAGLEVYPSILNQDNKTCSLPGTALKVSCFNVRFCLKADGKGVLPRKLNFQVELLLDKLKQKGAIRRALFLYSRSPSHSKNMTISRGGLMQCEELIAYLRDESEFRDKLTPITIFMEYRLDYRTAADTTGLQPILNQFTPANISRQAHILL
chain 2: EDNRCASSNAASCARCLALGPECGWCVQEDFISGGSRSERCDIVSNLISKGCSVDSIEYPSVHVIIPTENEINTQVTPGEVSIQLRPGAEANFMLKVHPLKKYPVDLYYLVDVSASMHNNIEKLNSVGNDLSRKMAFFSRDFRLGFGSYVDKTVSPYISIHPERIHNQCSDYNLDCMPPHGYIHVLSLTENITEFEKAVHRQKISGNIDTPEGGFDAMLQAAVCESHIGWRKEAKRLLLVMTDQTSHLALDSKLAGIVCPNDGNCHLKNNVYVKSTTMEHPSLGQLSEKLIDNNINVIFAVQGKQFHWYKDLLPLLPGTIAGEIESKAANLNNLVVEAYQKLISEVKVQVENQVQGIYFNITAICPDGSRKPGMEGCRNVTSNDEVLFNVTVTMKKCDVTGGKNYAIIKPIGFNETAKIHI
B1 was tested, and the Kd (B8_BP_dslf) was 1.9 nM and the Kd (B8_BP-LATY) was 0.5 nM.
